{"source": "patent US20050028229A1", "about": "(published 2005)", "binders": {"B1": {"name": "recombinant human AHSP (Alpha Hemoglobin Stabilizing Protein) (other, UniProt Q9NZD4 1-102, looked up)", "chain": "MALLKANKDLISAGLKEFSVLLNQQVFNDPLVSEEDMVTVVEDWMNFYINYYRQQVTGEPQERDKALQELRQELNTLANPFLAKYRDFLKSHELPSHPPPSS", "notes": "species not restated there; also called EDRF; Erythroid Differentiation Related Factor"}}, "key": {"[1]": {"molecular_target": "T1, purified human β-hemoglobin (human, UniProt P68871 2-147, heme-bound; carboxy (CO) form in interaction studies, oxy form in stability studies)", "T1 construct": "also called CO-β-hemoglobin; oxy-β-hemoglobin", "T1 sequence (P68871 2-147 limits assumed)": "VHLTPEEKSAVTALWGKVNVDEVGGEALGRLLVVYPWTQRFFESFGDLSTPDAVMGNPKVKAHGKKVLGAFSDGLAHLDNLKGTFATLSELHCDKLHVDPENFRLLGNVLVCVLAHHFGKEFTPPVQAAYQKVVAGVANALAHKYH", "test": "gel-filtration chromatography of equimolar mixtures", "from_the_text": "Duplicate strips were stained with benzidine to identify heme-containing proteins, and/or with Ponceau S to stain all proteins."}, "[2]": {"molecular_target": "T2, purified human α-hemoglobin (human, UniProt P69905 2-142, heme-bound; carboxy (CO) form in interaction studies, oxy form in stability studies)", "T2 construct": "Holo-protein with heme; also called CO-α-hemoglobin; carboxy (CO)-α-hemoglobin", "T2 sequence (P69905 2-142 limits assumed)": "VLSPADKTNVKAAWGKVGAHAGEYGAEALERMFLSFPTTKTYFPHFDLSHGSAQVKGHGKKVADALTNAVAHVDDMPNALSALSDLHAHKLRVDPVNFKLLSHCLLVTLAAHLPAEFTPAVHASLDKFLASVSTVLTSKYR", "test": "method not stated; told as 'discussed previously'"}, "[3]": {"molecular_target": "T2, purified human α-hemoglobin", "test": "gel filtration at various concentrations of AHSP and α-hemoglobin (data not shown)"}}, "data": [{"binder": "B1", "values": [{"measurement": "binding result", "setting": "[1]", "result": "no binding"}, {"measurement": "Kd", "setting": "[2]", "result": "~100", "unit": "nM"}, {"measurement": "Kd", "setting": "[3]", "result": "≤ 500", "unit": "nM"}]}]}
